Key:
Type in all cases: in vivo, human
[1] = Phase II clinical study of zenocutuzumab with an AR axis-targeting agent in mCRPC patients: safety; settings: cohort of ten mCRPC patients
Source text: (§1) This is a Phase II, open-label, multicenter, international study designed to evaluate the efficacy of zenocutuzumab in patients with metastatic mCRPC with evidence of disease progression in accordance with Prostate Cancer Clinical Trials Working Group 3 (PCWG3) criteria on the last line of prior hormonal therapy that included either the second-generation AR antagonist enzalutamide or the androgen synthesis inhibitor abiraterone acetate. Patients will be enrolled and will receive zenocutuzumab in combination with the AR targeting agent on which they experienced disease progression immediately before study entry. A cohort of patients with […] and tensin homolog (PTEN) wild-type status will be enrolled. A safety run-in will be performed in the first 4 to 6 patients.
(§2) Zenocutuzumab will be administered as a 2-hour IV infusion on Day 1, then Q2W of every 28-day cycle. A flat dose of 750 mg will be administered.
(§3) Patients will receive zenocutuzumab in combination with one of the following next generation AR signaling inhibitors that the patient was receiving immediately prior to entering the study: • Abiraterone acetate (ZYTIGA®) 1000 mg PO QD in combination with prednisone 5 mg PO twice daily (BID). • Enzalutamide (XTANDIR) 160 mg PO QD.
(§4) Eligible patients will be enrolled and will receive sequential treatment cycles, with a treatment cycle being 4 weeks (28 days). All patients will receive zenocutuzumab with a flat dose of 750 mg IV Q2W.
(§5) Following the clinical trial protocol of Example 2, mCRPC patients with histologically confirmed prostate adenocarcinoma were enrolled. Patients who were progressing on either abiraterone acetate or enzalutamide were continued on their backbone AR axis-targeting agents after study enrollment and received treatment with zenocutuzumab in combination. Sites of metastatic involvement included lymph nodes, bone, and/or visceral organs. PTEN status of tumors was established in patients by IHC when sufficient biological material was available, using Roche Ventana Optiview kit DAB and SP218 PTEN antibody using Benchmark Ultra immunohistochemical automated slide stainer. The OptiView DAB IHC Detection Kit (OptiView) is an indirect, biotin-free system for detecting mouse IgG, mouse IgM and rabbit primary antibodies. The kit is intended to identify targets by IHC in sections of formalin-fixed, paraffin-embedded and frozen tissue that are stained on the VENTANA automated slide stainers and visualized by light microscopy. The clinical interpretation of any staining, or the absence of staining, is complemented by morphological studies and evaluation of proper controls.
Among a cohort of ten patients treated, treatment-emergent adverse events (TEAE) related to study treatment classified as a Grade 3 TEAE or higher were not observed.

[2] = system: castration-resistant prostate cancer; assay: Phase II clinical study of zenocutuzumab with an AR axis-targeting agent in mCRPC patients: tumor response (RECIST v1.1 / PCWG3)
Source text: as §1, §2, §3, §4
Radiological measurement of tumors to assess antitumor effect of zenocutuzumab will be performed by CT scan or MRI. Imaging will be performed according to standard local practice and data will be collected in the electronic case report form. Imaging of all patients will be assessed by the local investigator.
Whole body bone scintigraphy will be performed every 8 weeks for the first 12 months of treatment and every 12 weeks thereafter. Tumor assessments will be completed according to PCWG3-modified RECIST criteria.
as §5

[3] = Single-agent treatment of over 100 patients with MF3958×MF3178: tolerability and immunogenicity
[4] = zenocutuzumab in combination with abiraterone acetate or enzalutamide
[5] = Example 4: person with mCRPC, combination with enzalutamide, 6 months
[6] = Example 5: person with mCRPC, PTEN loss, combination with abiraterone acetate/prednisone, 4 months

## zenocutuzumab: Full length IgG1 bispecific antibody comprising MF3958×MF3178, targeting ERBB2 and ERBB3
[1]; zenocutuzumab 750 mg IV Q2W in combination with abiraterone acetate or enzalutamide
  treatment-emergent adverse events (TEAE) related to study treatment classified as Grade 3 TEAE or higher: not observed
[1]; [4]
  infusion-related reactions (IRR) reported: a single IRR was reported (i.e. Grade 2, related)
  safety concerns: no safety concerns
  tolerability of the combination: very well tolerated
  treatment discontinuation due to an adverse event: no treatment discontinuation
  unexpected signals of toxicity: nor were any unexpected signals of toxicity reported
[2]; Example 4: combination with enzalutamide, after six months of on-going treatment
  radiographic progression (lymph node): no evidence of lymph node progression
[2]; [5]
  best overall response by RECIST: stable disease
  response by bone scans by PCWG3: no evidence of disease (NED)
[2]; Example 5: combination with abiraterone acetate/prednisone, after five months of on-going treatment
  radiographic progression (lymph node or bone): no evidence of lymph node or bone progression
[2]; [6]
  best overall response by RECIST: stable disease
  response by bone scans by PCWG3: stable disease
[2]; Example 6: person with mCRPC, PTEN wildtype, combination with enzalutamide
  best overall response by measurement of target lesions (lymph nodes) under RECIST v1.1 per investigator: stable disease
[3]
  risk for immunogenicity: low risk for immunogenicity
  tolerability as a single agent: well tolerated

— patent publication US20260167740A1, “MEANS AND METHODS FOR TREATING CASTRATION-RESISTANT PROSTATE CANCER” (Merus N.V., priority 2022, published 2026)
